Test [1] has as its target T1, recombinant human TNFα (human, UniProt P01375 77-233, 125I-labeled in the receptor-blocking assay ; 125I-labelled (positions not stated) only in the receptor-blocking assay; soluble homotrimer of this 17 kD subunit).
T1 construct: also called huTNFα; soluble human tumor necrosis factor alpha
Put plainly: competition radioligand assay: mAb in hybridoma supernatant preincubated with 5 ng/ml 125I-TNFα, then 125I-TNFα bound to plate-coated p55-sf2 (TNF receptor/IgG fusion) counted as cpm. The procedure: (§1) Although eight TNV mAb samples were tested in these experiments, for simplicity three of the mAbs that were shown by DNA sequence analyses to be identical to one of the other TNV mAbs (see Section 5.2.2) are not shown here. Each sample was tested in duplicate. The results shown are representative of two independent experiments.
(§2) 50:1 of p55-sf2 at 0.5 :g/ml in PBS was added to Optiplates to coat the wells during a one-hour incubation at 37° C. Serial dilutions of the eight TNV cell supernatants were prepared in 96-well round-bottom plates using PBS/0.1% BSA as diluent. […] The mixture was preincubated for one hour at RT. […] After 2 hrs at RT, Optiplates were washed three times with PBS-Tween. […] of Microscint-20 was added and the cpm bound determined using the TopCount gamma counter.

Test [2] addresses T1, recombinant human TNFα. Put plainly: cell-based or functional assay.
For test [3], the target named is T1, recombinant human TNFα. The test can be described thus: inhibition of 125I-TNFα binding to plate-coated p55-sf2 by hybridoma supernatant. The protocol:
as §1, §2

The next test addresses T2, human lymphotoxin (human, UniProt P01374 35-205, limits assumed).
T2 sequence (looked up): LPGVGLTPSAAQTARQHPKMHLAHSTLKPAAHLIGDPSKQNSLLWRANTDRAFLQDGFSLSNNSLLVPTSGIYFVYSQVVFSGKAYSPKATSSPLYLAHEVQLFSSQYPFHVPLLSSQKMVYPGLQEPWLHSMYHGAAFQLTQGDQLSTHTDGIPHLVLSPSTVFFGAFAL
The test can be described thus: not described.

Numbering of substitutions follows the chain as printed. Names and notes keep the numbering of the source.

B1: GenTNV148.26.12 (antibody, human IgG1, kappa, V domains shown)
VH: QVQLVESGGGVVQPGRSLRLSCAASGFIFSSYAMHWVRQAPGNGLEWVAFMSYDGSNKKYADSVKGRFTISRDNPKNTLYLQMNSLRAEDTAVYYCARDRGIAAGGNYYYYGMDVWGQGTTVTVSS
VL: EIVLTQSPATLSLSPGERATLSCRASQSVYSYLAWYQQKPGQAPRLLIYDASNRATGIPARFSGSGSGTDFTLTISSLEPEDFAVYYCQQRSNWPPFTFGPGTKVDIKR
notes: also called C420A
Regarding B1, the “IC50 (read off the curve)” value with recombinant human TNFα [1] was roughly 3 ng/mL. Moreover, the “neutralizing TNFα bioactivity (potency relative to TNV14)” value in the test with recombinant human TNFα [2] worked out at 4 fold. The “fold better at blocking TNF binding than TNV118 and TNV14” value in the test with recombinant human TNFα [3] is roughly 4 fold.

B2: GenTNV86.14.34 (antibody, human IgG1, kappa, V domains shown)
VH: B1 VH
VL: B1 VL
notes: also called C417A
B2: the “fold better at blocking TNF binding than TNV118 and TNV14” value with recombinant human TNFα [3] is roughly 4 fold.

B3: golimumab (antibody, human IgG1, kappa, V domains shown)
VH: B1 VH with P75S
VL: B1 VL
modifications: partial cyclic succinimide at LC Asn93 (LC cycAsn93); N-glycosylated on asparagine 306; partial deamidation of HC Asn43
notes: Fully human IgG1 kappa, produced in Sp2/0 cells; also called SIMPONI
Consider B3, for which the binding result with human lymphotoxin was “no binding”.

The values above are taken from US20220144934A1 (Janssen / Centocor, published 2022).
